Data as given in PMC10165143 (Computational and Structural Biotechnology Journal, 2023).
Where no end group is shown, it is not given here. [ ]: non-standard residue; d: D form. The star is where a group is joined. FITC = O=C1OC2(c3ccc(O)cc3Oc3cc(O)ccc32)c2ccc(NC(=S)*)cc21; pT = C[C@@H](OP(=O)(O)O)[C@H](N)C(=O)O

Columns and labels:
[1] = target: T1, Bmh1 (S. cerevisiae 14-3-3 isoform) (S. cerevisiae, UniProt P29311 1-267); assay: fluorescence polarisation
T1 sequence (looked up): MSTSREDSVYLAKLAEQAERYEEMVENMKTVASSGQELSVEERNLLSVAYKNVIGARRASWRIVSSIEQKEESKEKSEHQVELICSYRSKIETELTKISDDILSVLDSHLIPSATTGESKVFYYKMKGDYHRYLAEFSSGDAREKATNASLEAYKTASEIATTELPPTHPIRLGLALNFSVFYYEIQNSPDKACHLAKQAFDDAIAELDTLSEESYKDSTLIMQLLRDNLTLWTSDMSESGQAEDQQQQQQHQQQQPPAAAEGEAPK

[2] = target: T2, Bmh2 (S. cerevisiae 14-3-3 isoform) (S. cerevisiae, UniProt P34730 1-273); assay: fluorescence polarisation
T2 sequence (looked up): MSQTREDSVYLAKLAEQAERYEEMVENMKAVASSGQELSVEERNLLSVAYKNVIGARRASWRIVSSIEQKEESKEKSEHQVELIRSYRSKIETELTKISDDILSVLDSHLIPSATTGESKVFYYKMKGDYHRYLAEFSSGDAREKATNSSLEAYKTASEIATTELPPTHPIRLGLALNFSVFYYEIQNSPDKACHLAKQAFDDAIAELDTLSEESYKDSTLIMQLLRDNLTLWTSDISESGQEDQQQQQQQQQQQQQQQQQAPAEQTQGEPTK

Binder: {FITC}-RRCF[pT]LLFP [FITC-labeled synthetic Trk1 peptide (FITC-RRCFpTLLFP) with phosphorylated Thr900]
- Kd [1]: 4 µM
- Kd [2]: 3.4 µM
